Measurements: PMC5398546

Columns and labels:
[1] = biological target: wild-type human serotonin 5HT1B receptor (residues 34-390) with C-terminal His10 (human) (UniProt P28222); assay: fluorescent saturation binding assay (FSBA); DDM-solubilised donitriptan-bound His-tagged 5HT1BR immobilised on Ni2+-coated 96-well plate; GFP-mini-G protein 0 to 5 μM, 90 min on ice; specific binding = minus the GFP-mini-Gs condition; apparent KD, one-site fit
[2] = biological target: C-terminally truncated human A2AR (residues 1-317, N154A, C-terminal His10) (human) (UniProt P29274); assay: fluorescent saturation binding assay (FSBA); DDM-solubilised His-tagged β1AR or A2AR immobilised on Ni2+-coated 96-well plate; GFP-mini-Gs 0 to 2.8 μM, 90 min on ice; specific binding = agonist minus inverse agonist condition; apparent KD, one-site fit
Sequence of C-terminally truncated human A2AR (residues 1-317, N154A, C-terminal His10) (human) (P29274 1-317 N154A): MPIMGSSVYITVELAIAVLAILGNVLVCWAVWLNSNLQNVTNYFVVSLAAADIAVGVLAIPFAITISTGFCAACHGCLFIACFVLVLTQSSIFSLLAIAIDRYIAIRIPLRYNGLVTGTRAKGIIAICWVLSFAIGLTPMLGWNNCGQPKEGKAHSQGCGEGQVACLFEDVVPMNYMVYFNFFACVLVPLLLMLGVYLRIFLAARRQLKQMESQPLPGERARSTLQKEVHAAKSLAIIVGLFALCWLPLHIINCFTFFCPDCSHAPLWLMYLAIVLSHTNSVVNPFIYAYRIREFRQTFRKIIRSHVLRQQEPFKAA

Sequence of wild-type human serotonin 5HT1B receptor (residues 34-390) with C-terminal His10 (human) (P28222 34-390): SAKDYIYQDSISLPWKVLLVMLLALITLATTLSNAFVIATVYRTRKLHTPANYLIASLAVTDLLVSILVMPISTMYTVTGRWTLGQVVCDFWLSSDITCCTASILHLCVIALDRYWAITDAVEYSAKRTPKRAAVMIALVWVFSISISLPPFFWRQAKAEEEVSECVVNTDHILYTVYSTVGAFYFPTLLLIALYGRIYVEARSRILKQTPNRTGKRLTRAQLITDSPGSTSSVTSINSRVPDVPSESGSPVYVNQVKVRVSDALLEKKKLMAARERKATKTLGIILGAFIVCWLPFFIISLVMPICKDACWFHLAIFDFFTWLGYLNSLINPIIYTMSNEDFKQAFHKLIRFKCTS

| Kd [1] [nM] | Kd [2] [nM] | Substance |
| --- | --- | --- |
| 180 |  | GFP-mini-Go1 (construct 12) (domain or fragment) |
|  | 430 | GFP-mini-Gs (domain or fragment) |
| 390 |  | GFP-mini-Gs/i1 (construct 43) (domain or fragment) |
